From patent publication US20160145309A1

Molecular target: human APJ receptor (human) (UniProt P35414)
Experiment: cell-based or functional assay

Sequence of human APJ receptor (human) (P35414 whole entry): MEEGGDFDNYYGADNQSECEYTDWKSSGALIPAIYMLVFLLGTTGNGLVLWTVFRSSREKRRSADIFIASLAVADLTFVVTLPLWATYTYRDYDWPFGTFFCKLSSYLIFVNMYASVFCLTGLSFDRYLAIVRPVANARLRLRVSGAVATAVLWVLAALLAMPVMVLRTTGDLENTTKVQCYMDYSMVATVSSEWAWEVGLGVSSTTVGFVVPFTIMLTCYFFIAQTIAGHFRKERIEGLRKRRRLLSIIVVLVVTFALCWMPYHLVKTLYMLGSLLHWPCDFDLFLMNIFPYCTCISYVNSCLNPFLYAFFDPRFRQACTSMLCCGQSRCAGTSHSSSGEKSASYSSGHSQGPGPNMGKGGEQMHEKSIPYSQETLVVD

With “Example 19: pE-R-P-R-L-a-Aib-K-C*-P-Nle-C*-f-OH (peptide)” the hAPJ Ca2+ Flux EC50 was 72.3 nM.

For “Example 16: pE-R-P-R-L-S-a-K-C*-P-Nle-C*-f-OH (peptide)”, the hAPJ Ca2+ Flux EC50 was 33.2 nM.

For “Example 12: pE-R-P-R-L-S-C*-K-G-P-Nle-hC*-F-OH (peptide)”, the hAPJ Ca2+ Flux EC50 was 81.7 nM.

Substance “Example 14: pE-R-P-R-L-S-H-K-C*-P-Nle-C*-F-OH (peptide)” has a hAPJ Ca2+ Flux EC50 of 0.81 nM.

Work on “Example 21: pE-R-P-R-L-s-H-K-C*-P-Nle-C*-f-OH (peptide)” yielded a hAPJ Ca2+ Flux EC50 of 9.7 nM.

“Example 4: pE-R-P-R-L-S-C*-K-G-P-Nle-(D-hC)*-F-OH (peptide)” gave a hAPJ Ca2+ Flux EC50 of 406 nM.

With “Example 1: pE-R-P-R-C*-S-H-K-G-P-Nle-C*-F-OH (peptide)” the hAPJ Ca2+ Flux EC50 was 0.74 nM.

Substance “Example 8: pE-R-P-R-L-S-(D-hC)*-K-G-P-Nle-C*-F-OH (peptide)” has a hAPJ Ca2+ Flux EC50 of 613 nM.

For “Example 7: pE-R-P-R-L-S-(D-hC)*-K-G-P-Nle-(D-hC)*-F-OH (peptide)”, the hAPJ Ca2+ Flux EC50 was 781 nM.

Substance “Example 6: pE-R-P-R-L-S-hC*-K-G-P-Nle-(D-hC)*-F-OH (peptide)” has a hAPJ Ca2+ Flux EC50 of 92.8 nM.

“Example 18: Isonipecotoyl-R-P-R-L-a-H-K-C*-P-Nle-C*-f-OH (peptide)” gave a hAPJ Ca2+ Flux EC50 of 2.3 nM.

In the case of “Example 5: pE-R-P-R-L-S-c*-K-G-P-Nle-(D-hC)*-F-OH (peptide)”, the hAPJ Ca2+ Flux EC50 is reported as 981 nM.

In the case of “Example 2: pE-R-P-R-hC*-S-H-K-G-P-(D-Nle)-C*-y-OH (peptide)”, the hAPJ Ca2+ Flux EC50 is reported as 154 nM.

With “Example 13: pE-R-P-R-L-S-hC*-K-G-P-Nle-hC*-F-OH (peptide)” the hAPJ Ca2+ Flux EC50 was 760 nM.

For “Example 20: pE-R-P-R-L-S-Aib-K-C*-P-Nle-C*-f-OH (peptide)”, the hAPJ Ca2+ Flux EC50 was 6.1 nM.

For “Example 17: pE-R-P-R-L-a-H-K-C*-P-Nle-C*-f-OH (peptide)”, the hAPJ Ca2+ Flux EC50 was 1.9 nM.

“Example 11: pE-R-P-R-L-S-C*-K-G-P-Nle-c*-F-OH (peptide)” showed a hAPJ Ca2+ Flux EC50 of 113 nM.

Substance “Example 3: pE-R-P-R-L-S-C*-K-G-P-Nle-C*-F-OH (peptide)” has a hAPJ Ca2+ Flux EC50 of 128 nM.

“Example 10: pE-R-P-R-L-S-(D-hC)*-K-G-P-Nle-C*-OH (peptide)” was tested, and the hAPJ Ca2+ Flux EC50 was 976 nM.

In the case of “Example 9: pE-R-P-R-L-S-(D-hC)*-K-G-P-Nle-hC*-F-OH (peptide)”, the hAPJ Ca2+ Flux EC50 is reported as 1030 nM.

“Example 15: pE-R-P-R-L-S-Aib-K-C*-P-Nle-C*-NH(Phenethyl) (peptide)” showed a hAPJ Ca2+ Flux EC50 of 4 nM.
